# Experimental data published in article PMC2196039.
# Several values for one entry are separate records, joined by “and”; a condition that tells them apart may be missing. Equal entries are not always repeated. Where two headings read alike, the source gives them in different places.
# Tests used:
# [1] = molecular target: soluble recombinant CD80 (sCD80), sCD80his after removal of the carboxy-terminal oligo-histidine tag (human); assay: SPR
# CTLA-4 Ig (human) [2] = molecular target: CTLA-4 Ig (human) (UniProt P16410); assay: SPR
# CD28 Ig [3] = molecular target: CD28 Ig (UniProt P10747); assay: SPR
# CTLA-4 Ig (human) [4] = molecular target: CTLA-4 Ig (human) (UniProt P16410); assay: pull-down
# CTLA-4 Ig (human) [5] = molecular target: CTLA-4 Ig (human) (UniProt P16410); assay: SPR; remark: listed apart in the source
# CD28 Ig [6] = molecular target: CD28 Ig (UniProt P10747); assay: SPR; remark: listed apart in the source
# CTLA-4 Ig (human) [7] = molecular target: CTLA-4 Ig (human) (UniProt P16410); assay: SPR; remark: listed apart in the source
# CD28 Ig [8] = molecular target: CD28 Ig (UniProt P10747); assay: SPR; remark: listed apart in the source
# CTLA-4 Ig (human) [9] = molecular target: CTLA-4 Ig (human) (UniProt P16410); assay: SPR; remark: listed apart in the source
# CD28 Ig [10] = molecular target: CD28 Ig (UniProt P10747); assay: SPR; remark: listed apart in the source
# Chain of CTLA-4 Ig (P16410 37-161): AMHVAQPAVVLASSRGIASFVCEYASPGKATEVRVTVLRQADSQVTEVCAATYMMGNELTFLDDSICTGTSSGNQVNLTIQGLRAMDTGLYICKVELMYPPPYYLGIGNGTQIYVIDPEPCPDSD
substance,measurement,setting,value
CTLA-4 Ig (from UniProt P16410 37-161) (Fc fusion),fold higher avidity than CD28 Ig,[1],> 100 fold
"soluble recombinant CD80 (sCD80), sCD80his after removal of the carboxy-terminal oligo-histidine tag (domain or fragment)",Kd,CTLA-4 Ig (human) [2],400 nM
same,"response at 0.26 μM sCD80 (CTLA-4 Ig 1,500 RUs), beginning of the experiment",CTLA-4 Ig (human) [2],255 RU
same,"response at 0.26 μM sCD80 (CTLA-4 Ig 1,500 RUs), end of the experiment",CTLA-4 Ig (human) [2],250 RU
same,"t1/2 of dissociation (high CTLA-4 Ig level, 20 μl/min)",CTLA-4 Ig (human) [2],4.8 s
same,"t1/2 of dissociation (high CTLA-4 Ig level, 40 μl/min)",CTLA-4 Ig (human) [2],4.4 s
same,"t1/2 of dissociation (low CTLA-4 Ig level, 20 μl/min)",CTLA-4 Ig (human) [2],2.2 s
same,"t1/2 of dissociation (low CTLA-4 Ig level, 40 μl/min)",CTLA-4 Ig (human) [2],2.35 s
same,Kd,CD28 Ig [3],4100 nM and 4300 nM
same,"response at 0.82 μM sCD80 (CD28 Ig 7800 RUs), beginning of the experiment",CD28 Ig [3],160 RU
same,"t1/2 of dissociation (high CD28 Ig level, 40 μl/min)",CD28 Ig [3],0.93 s
same,"t1/2 of dissociation (high CD28 Ig level, 80 μl/min)",CD28 Ig [3],0.84 s
same,"t1/2 of dissociation (low CD28 Ig level, 40 μl/min)",CD28 Ig [3],0.69 s
same,"t1/2 of dissociation (low CD28 Ig level, 80 μl/min)",CD28 Ig [3],0.64 s
same,proportion of sCD80 with CTLA-4-binding activity,CTLA-4 Ig (human) [4],100%
same,Kd,CTLA-4 Ig (human) [5],420 nM
same,Kd,CD28 Ig [6],4000 nM
same,Kd,CTLA-4 Ig (human) [7],380 nM
same,Kd,CD28 Ig [8],4200 nM
same,Kd,CTLA-4 Ig (human) [9],260 nM
same,Kd,CD28 Ig [10],2500 nM
